The target of test [1] is T1, Protein A on the surface of S. aureus Newman wild-type (Staphylococcus aureus (strain Newman), UniProt P38507 37-477).
T1 construct: whole, on cells; also called S. aureus Newman WT; wild-type S. aureus expressing Protein A
Description: ELISA, coated S. aureus Newman, antibody 1.18E-12 M.

Test [2] has as its target T1, Protein A on the surface of S. aureus …. The experiment in a line: ELISA, coated S. aureus Newman, antibody 3.86E-08 M. (An ELISA detects its analyte on a solid surface through an enzyme-linked reagent.)
For test [3], the target named is T2, IgG binding protein (Protein A homolog SpsQ/SpsP) on S. intermedius 27369 (Staphylococcus intermedius).
T2 construct: whole, on cells; also called Staphylococcus intermedius 27369
Description: ELISA, coated S. intermedius 27369, antibody 3.86E-08 M.

Test [4] deals with T2, IgG binding protein (Protein A homolog …). Description: ELISA, coated S. intermedius 27369, antibody 4.82E-09 M.
Test [5] has the same target. Description: ELISA, coated S. intermedius 27369, antibody 7.54E-11 M.
The target is the same in test [6]. Description: ELISA, coated S. intermedius 27369, antibody 9.42E-12 M.
For test [7], the target named is T3, IgG binding protein (Protein A homolog SpsQ/SpsP) on MRSP S. pseudintermedius 88493 (Staphylococcus pseudintermedius).
T3 construct: whole, on cells; also called MRSP Staphylococcus pseudintermedius 88493 (methicillin-resistant)
The experiment in a line: ELISA, coated S. pseudintermedius 88493, antibody 1.18E-12 M.

Test [8] deals with T3, IgG binding protein (Protein A homolog …). The experiment in a line: ELISA, coated S. pseudintermedius 88493, antibody 3.86E-08 M.
Test [9] shares this target. The experiment in a line: ELISA, coated S. pseudintermedius 88493, antibody 4.82E-09 M.
For test [10] the target is unchanged. The experiment in a line: ELISA, coated S. pseudintermedius 88493, antibody 6.03E-10 M.
Test [11] concerns the target T4, IgG binding protein (Protein A homolog SpsQ/SpsP) on S. pseudintermedius AHDRCC 98200 (Staphylococcus pseudintermedius).
T4 construct: whole, on cells; also called S. pseudintermedius 98200; Staphylococcus pseudintermedius AHDRCC 98200
Description: ELISA, coated S. pseudintermedius 98200, antibody 1.18E-12 M.

Test [12] addresses T4, IgG binding protein (Protein A homolog …). Description: ELISA, coated S. pseudintermedius 98200, antibody 1.47E-13 M.
The target is the same in test [13]. The experiment in a line: ELISA, coated S. pseudintermedius 98200, antibody 6.03E-10 M.
Test [14] has the same target. The experiment in a line: ELISA, coated S. pseudintermedius 98200, antibody 7.54E-11 M.
The target is the same in test [15]. Description: ELISA, coated S. pseudintermedius 98200, antibody 9.42E-12 M.
The target of test [16] is T5, Protein A (purified reagent) (Staphylococcus aureus, UniProt P38507 37-477).
T5 construct: also called Protein A (Calbiochem, 539202-5 MG); Protein A reagent
Description: SPR (Biacore), mAb captured by anti-human Fc, Protein A injected, 37 C. In general terms: SPR reads the build-up and loss of mass on a sensor chip optically.

The target in test [17] is T1, Protein A on the surface of S. aureus …. The experiment in a line: flow cytometry; blocking antibody 1 ug/mL, then Alexa-488 Fc fragment (competitor) on wild-type S. aureus.
For test [18] the target is unchanged. Description: flow cytometry; blocking antibody 1 ug/mL, then Alexa-488 VH3 hIgG1*/* antibody (competitor) on wild-type S. aureus. A general note: Flow cytometry measures light scatter and fluorescence of single cells or particles in a stream.
Test [19] shares this target. Description: flow cytometry; blocking antibody 10 ug/mL, then Alexa-488 VH3 hIgG1*/* antibody (competitor) on wild-type S. aureus.

B1: H1xH15140P*/* (anti-Protein A) (antibody, V domains shown)
VH: EVQLVESGGGLVQPGGSLTLSCTASGFSFSSYVMSWVRQSPGKGLEWVSAIGGSGTSTYYRDSVKGRFTISRDNSKNTLNLQMSSLRAEDTAVYYCARDGLGHRDYWGQGTLVTVSS
VL: DIQMTQSPSSVSASVGDRVTITCRASQGINSWLAWYQQKPGKAPKLLIYAASSLQSGVPSRFSGSGSGTDFTLTISSLQPEDFATYYCQQANSFPFTFGPGTKVDIK
notes: also called anti-Protein A hIgG1*/*; H1xH15140P*/*-L1
A word on the Kd: it is the constant that tells how readily two partners part at equilibrium. Higher therefore signals a looser complex. What is called koff is the first-order rate constant of dissociation. A lower koff goes with slow dissociation. As usually defined, the kon is the second-order rate constant of association. A low value points to slower complex formation. For orientation: t½ means how long it takes for the measured level to halve. As to B1, the ELISA luminescent signal in test [1] amounted to 28400; in test [2], 838000; in test [3], 8310; in [4], 3030; in test [5] it was 2660; in test [6], 1520. Also, the ELISA luminescent signal was determined as 5990 in test [7]; 6360 in test [8]; 5970 in test [9]; 10000 in test [10]; 5020 in [11]; 3940 in [12]. For the same molecule, the ELISA luminescent signal in test [13] is 4890; in test [14], 4680; in test [15] it was 2480. Moreover, in [16], binding was characterised by a dissociation constant (Kd) of 0.0986 nM. The molecule also yielded a koff in [16] of 0.000117 s⁻¹. This molecule came in with a kon in [16] of 1.19e+06 M⁻¹ s⁻¹. This molecule also gave a t½ in [16] of 1.65 h. Besides, the “Fc: S. aureus blocking activity (%)” value in test [17] came to 78%. For the same molecule, the “VH3 antibody: S. aureus blocking activity (%)” value in test [18] came to 84.5%; in [19], 84.7%.

For the origin of these results see patent publication US20240301041A1 (Regeneron, published 2024).
